Measurements reported in PMC11315935, “Multi-layered heterochromatin interaction as a switch for DIM2-mediated DNA methylation” (Nature Communications, 2024).

Test system: (CTA)12/(TAG)12 36-mer DNA duplex
Experiment: In vitro DNA methylation assay of DIM2 (WT or mutant)
Assay type: biochemical
Parameters: DNA methylation activity: unit not given here
Details: 30 min, pH 8.0; for DNA methylation activity of DIM2 (in words): 1.0 µM DIM2, 30 °C; for DNA methylation activity: Fig. 6d, H3_1-24K9me3 binding-associated mutants, 1.0 µM DIM2, 1.0 µM DNA duplex, 30 °C

Molecule	DNA methylation activity of DIM2 (in words)	DNA methylation activity (replicate 1)	DNA methylation activity (replicate 2)	DNA methylation activity (replicate 3)
DIM2W261A/W581A: DIM2 with W261A/W581A double mutation (protein, left off: His6, N-terminal, cleaved | MBP, N-terminal, cleaved, DIM2 with W261A/W581A double mutation) MDSPDRSHGGMFIDVPAETMGFQEDYLDMFASVLSQGLAKEGDYAHHQPLPAGKEECLEPIAVATTITPSPDDPQLQLQLELEQQFQTESGLNGVDPAPAPESEDEADLPDGFSDESPDDDFVVQRSKHITVDLPVSTLINPRSTFQRIDENDNLVPPPQSTPERVAVEDLLKAAKAAGKNKEDYIEFELHDFNFYVNYAYHPQEMRPIQLVATKVLHDKYYFDGVLKYGNTKHYVTGMQVLELPVGNYGASLHSVKGQIAVRSKHNAKKEIYYLLKKPAFEYQRYYQPFLWIADLGKHVVDYCTRMVERKREVTLGCFKSDFIQWASKAHGKSKAFQNWRAQHPSDDFRTSVAANIGYIWKEINGVAGAKRAAGDQLFRELMIVKPGQYFRQEVPPGPVVTEGDRTVAATIVTPYIKECFGHMILGKVLRLAGEDAEKEKEVKLAKRLKIENKNATKADTKDDMKNDTATESLPTPLRSLPVQVLEATPIESDIVSIVSSDLPPSENNPPPLTNGSVKPKAKANPKPKPSTQPLHAAHVKYLSQELVNKIKVGDVISTPRDDSSNTDTKWKPTDTDDHRAFGLVQRVHTAKTKSSGRGLNSKSFDVIWFYRPEDTPCCAMKYKWRNELFLSNHCTCQEGHHARVKGNEVLAVHPVDWFGTPESNKGEFFVRQLYESEQRRWITLQKDHLTCYHNQPPKPPTAPYKPGDTVLATLSPSDKFSDPYEVVEYFTQGEKETAFVRLRKLLRRRKVDRQDAPANELVYTEDLVDVRAERIVGKCIMRCFRPDERVPSPYDRGGTGNMFFITHRQDHGRCVPLDTLPPTLRQGFNPLGNLGKPKLRGMDLYCGGGNFGRGLEEGGVVEMRWANDIWDKAIHTYMANTPDPNKTNPFLGSVDDLLRLALEGKFSDNVPRPGEVDFIAAGSPCPGFSLLTQDKKVLNQVKNQSLVASFASFVDFYRPKYGVLENVSGIVQTFVNRKQDVLSQLFCALVGMGYQAQLILGDAWAHGAPQSRERVFLYFAAPGLPLPDPPLPSHSHYRVKNRNIGFLCNGESYVQRSFIPTAFKFVSAGEGTADLPKIGDGKPDACVRFPDHRLASGITPYIRAQYACIPTHPYGMNFIKAWNNGNGVMSKSDRDLFPSEGKTRTSDASVGWKRLNPKTLFPTVTTTSNPSDARMGPGLHWDEDRPYTVQEMRRAQGYLDEEVLVGRTTDQWKLVGNSVSRHMALAIGLKFREAWLGTLYD	largely abolished the DNA methylation activity	0.373	0.344	0.323
DIM2K362A: DIM2 with H3K9me3-binding site mutation in the RFTS domain (K362A) (protein, left off: His6, N-terminal, cleaved | MBP, N-terminal, cleaved) MDSPDRSHGGMFIDVPAETMGFQEDYLDMFASVLSQGLAKEGDYAHHQPLPAGKEECLEPIAVATTITPSPDDPQLQLQLELEQQFQTESGLNGVDPAPAPESEDEADLPDGFSDESPDDDFVVQRSKHITVDLPVSTLINPRSTFQRIDENDNLVPPPQSTPERVAVEDLLKAAKAAGKNKEDYIEFELHDFNFYVNYAYHPQEMRPIQLVATKVLHDKYYFDGVLKYGNTKHYVTGMQVLELPVGNYGASLHSVKGQIWVRSKHNAKKEIYYLLKKPAFEYQRYYQPFLWIADLGKHVVDYCTRMVERKREVTLGCFKSDFIQWASKAHGKSKAFQNWRAQHPSDDFRTSVAANIGYIWAEINGVAGAKRAAGDQLFRELMIVKPGQYFRQEVPPGPVVTEGDRTVAATIVTPYIKECFGHMILGKVLRLAGEDAEKEKEVKLAKRLKIENKNATKADTKDDMKNDTATESLPTPLRSLPVQVLEATPIESDIVSIVSSDLPPSENNPPPLTNGSVKPKAKANPKPKPSTQPLHAAHVKYLSQELVNKIKVGDVISTPRDDSSNTDTKWKPTDTDDHRWFGLVQRVHTAKTKSSGRGLNSKSFDVIWFYRPEDTPCCAMKYKWRNELFLSNHCTCQEGHHARVKGNEVLAVHPVDWFGTPESNKGEFFVRQLYESEQRRWITLQKDHLTCYHNQPPKPPTAPYKPGDTVLATLSPSDKFSDPYEVVEYFTQGEKETAFVRLRKLLRRRKVDRQDAPANELVYTEDLVDVRAERIVGKCIMRCFRPDERVPSPYDRGGTGNMFFITHRQDHGRCVPLDTLPPTLRQGFNPLGNLGKPKLRGMDLYCGGGNFGRGLEEGGVVEMRWANDIWDKAIHTYMANTPDPNKTNPFLGSVDDLLRLALEGKFSDNVPRPGEVDFIAAGSPCPGFSLLTQDKKVLNQVKNQSLVASFASFVDFYRPKYGVLENVSGIVQTFVNRKQDVLSQLFCALVGMGYQAQLILGDAWAHGAPQSRERVFLYFAAPGLPLPDPPLPSHSHYRVKNRNIGFLCNGESYVQRSFIPTAFKFVSAGEGTADLPKIGDGKPDACVRFPDHRLASGITPYIRAQYACIPTHPYGMNFIKAWNNGNGVMSKSDRDLFPSEGKTRTSDASVGWKRLNPKTLFPTVTTTSNPSDARMGPGLHWDEDRPYTVQEMRRAQGYLDEEVLVGRTTDQWKLVGNSVSRHMALAIGLKFREAWLGTLYD	marked decrease of the DNA methylation activity	1.971	1.588	1.581
DIM2E649A: DIM2 with mutation in the BAH1 domain (E649A) (protein, left off: His6, N-terminal, cleaved | MBP, N-terminal, cleaved) MDSPDRSHGGMFIDVPAETMGFQEDYLDMFASVLSQGLAKEGDYAHHQPLPAGKEECLEPIAVATTITPSPDDPQLQLQLELEQQFQTESGLNGVDPAPAPESEDEADLPDGFSDESPDDDFVVQRSKHITVDLPVSTLINPRSTFQRIDENDNLVPPPQSTPERVAVEDLLKAAKAAGKNKEDYIEFELHDFNFYVNYAYHPQEMRPIQLVATKVLHDKYYFDGVLKYGNTKHYVTGMQVLELPVGNYGASLHSVKGQIWVRSKHNAKKEIYYLLKKPAFEYQRYYQPFLWIADLGKHVVDYCTRMVERKREVTLGCFKSDFIQWASKAHGKSKAFQNWRAQHPSDDFRTSVAANIGYIWKEINGVAGAKRAAGDQLFRELMIVKPGQYFRQEVPPGPVVTEGDRTVAATIVTPYIKECFGHMILGKVLRLAGEDAEKEKEVKLAKRLKIENKNATKADTKDDMKNDTATESLPTPLRSLPVQVLEATPIESDIVSIVSSDLPPSENNPPPLTNGSVKPKAKANPKPKPSTQPLHAAHVKYLSQELVNKIKVGDVISTPRDDSSNTDTKWKPTDTDDHRWFGLVQRVHTAKTKSSGRGLNSKSFDVIWFYRPEDTPCCAMKYKWRNELFLSNHCTCQEGHHARVKGNAVLAVHPVDWFGTPESNKGEFFVRQLYESEQRRWITLQKDHLTCYHNQPPKPPTAPYKPGDTVLATLSPSDKFSDPYEVVEYFTQGEKETAFVRLRKLLRRRKVDRQDAPANELVYTEDLVDVRAERIVGKCIMRCFRPDERVPSPYDRGGTGNMFFITHRQDHGRCVPLDTLPPTLRQGFNPLGNLGKPKLRGMDLYCGGGNFGRGLEEGGVVEMRWANDIWDKAIHTYMANTPDPNKTNPFLGSVDDLLRLALEGKFSDNVPRPGEVDFIAAGSPCPGFSLLTQDKKVLNQVKNQSLVASFASFVDFYRPKYGVLENVSGIVQTFVNRKQDVLSQLFCALVGMGYQAQLILGDAWAHGAPQSRERVFLYFAAPGLPLPDPPLPSHSHYRVKNRNIGFLCNGESYVQRSFIPTAFKFVSAGEGTADLPKIGDGKPDACVRFPDHRLASGITPYIRAQYACIPTHPYGMNFIKAWNNGNGVMSKSDRDLFPSEGKTRTSDASVGWKRLNPKTLFPTVTTTSNPSDARMGPGLHWDEDRPYTVQEMRRAQGYLDEEVLVGRTTDQWKLVGNSVSRHMALAIGLKFREAWLGTLYD	marked decrease of the DNA methylation activity	3.26	3.183	3.28
